Assay results taken from publication PMC8423243.
Where two headings read alike, the source gives them in different places.

Row | Substance | other (N-glycosylation at N241) | other (N-glycosylation at N611) | other (N-glycosylation at N289)
1 | BG505 Env S241N variant (SOSIP and virus): S241N + P291T (double PNGS knock-in; direction given for knock-in relative to parental BG505) | abolishes | – | –
2 | BG505 Env S241N variant (SOSIP and virus): S241N (PNGS knock-in; direction given for knock-in relative to parental BG505) | abolishes | – | –
3 | BG505 Env (BG505 SOSIP trimer and BG505 T332N virus): N611A (virus) | – | increases | –
4 | BG505 Env P291T (virus) / P291S (SOSIP) variant: P291T and S241N + P291T (PNGS knock-ins; direction given for knock-in relative to parental BG505) | – | – | decreases
5 | BG505 Env (BG505 SOSIP trimer and BG505 T332N virus): deletion of the N611 PNGS (N611A virus) | – | no change | –
6 | BG505 Env P291T (virus) / P291S (SOSIP) variant: P291T (PNGS knock-in at N289; direction given for knock-in relative to parental BG505) | – | – | abolishes
